Consider five substances from patent US20120014998A1.

Ala-Cpn10 (Wild type Cpn10), sequence (P61604 other isoform, or with tags, fused parts or gaps limits assumed): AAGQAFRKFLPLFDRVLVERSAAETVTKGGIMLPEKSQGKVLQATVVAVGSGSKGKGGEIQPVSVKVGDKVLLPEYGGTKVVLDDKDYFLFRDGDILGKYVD
Gly-Cpn10, sequence (P61604 other isoform, or with tags, fused parts or gaps limits assumed): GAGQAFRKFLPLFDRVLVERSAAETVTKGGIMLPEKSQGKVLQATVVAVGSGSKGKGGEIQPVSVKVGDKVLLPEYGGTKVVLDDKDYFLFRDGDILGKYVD
X-Cpn10 (i.e. non-acetylated), sequence (P61604 2-102 limits assumed): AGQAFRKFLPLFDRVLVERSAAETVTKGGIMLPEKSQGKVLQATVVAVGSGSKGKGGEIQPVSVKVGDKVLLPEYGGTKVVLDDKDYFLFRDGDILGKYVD
Ala-Cpn10-cHis, sequence (P61604 other isoform, or with tags, fused parts or gaps limits assumed): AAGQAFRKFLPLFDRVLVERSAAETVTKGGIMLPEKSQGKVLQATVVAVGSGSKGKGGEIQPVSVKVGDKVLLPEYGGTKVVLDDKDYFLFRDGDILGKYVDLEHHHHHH

In the experiment the target is GroEL (E. coli Cpn60) (E. coli) (UniProt P0A6F5). The experiment is described as follows: cell-based or functional assay.
GroEL (E. coli Cpn60) (E. coli), sequence (P0A6F5 2-548 limits assumed): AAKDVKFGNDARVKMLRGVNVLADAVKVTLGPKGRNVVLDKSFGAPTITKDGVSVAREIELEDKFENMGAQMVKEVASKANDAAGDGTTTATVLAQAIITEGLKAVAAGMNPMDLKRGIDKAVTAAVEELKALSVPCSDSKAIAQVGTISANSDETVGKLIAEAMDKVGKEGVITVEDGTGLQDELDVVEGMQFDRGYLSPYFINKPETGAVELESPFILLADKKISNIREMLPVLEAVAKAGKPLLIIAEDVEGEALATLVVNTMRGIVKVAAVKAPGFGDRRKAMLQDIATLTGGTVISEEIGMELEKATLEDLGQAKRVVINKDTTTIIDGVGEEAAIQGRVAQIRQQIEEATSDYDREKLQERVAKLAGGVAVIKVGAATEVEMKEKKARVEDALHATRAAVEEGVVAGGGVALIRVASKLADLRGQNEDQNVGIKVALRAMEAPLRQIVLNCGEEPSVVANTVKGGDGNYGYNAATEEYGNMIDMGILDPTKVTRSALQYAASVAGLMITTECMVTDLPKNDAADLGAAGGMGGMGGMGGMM
For “Ala-Cpn10 (Wild type Cpn10) (from UniProt P61604 2-102)”, the Refolding activity (% of Ala-Cpn10) (% of Ala-Cpn10) stood at 100. On to “Ala-Cpn10-cHis (from UniProt P61604 2-102)”, for which the Refolding activity (% of Ala-Cpn10) (% of Ala-Cpn10) is 40. Regarding “Cpn10-NtermES (from UniProt P61604 11-102)”, the Refolding activity (% of Ala-Cpn10) (% of Ala-Cpn10) came to 12.

As to Gly-Cpn10 (from UniProt P61604 2-102), the Refolding activity (% of Ala-Cpn10) (% of Ala-Cpn10) was 107. As for “X-Cpn10 (i.e. non-acetylated) (from UniProt P61604 2-102)”, the figure is 105.
